In patent US8981056:

Target: Aspergillus terreus LOVF Polyketide Synthase

B1: LovD G7 mutant (protein)
chain: MGSIIDAAAAAGPVVLMETAFRKAVESRQIPGAVIMARDASGNLNYTRCFGARTVRRDENNQLPPLQVDTPCRLASATKLLTTIMVLQCMERGLVDLDETVDRLLPDLSAMPVLEGFDDAGNARLRERRGKITLRHLLTHTSGLSYVFLHPLLREYMAQGYLQSAEKFGIQSRLAPPAVNDPGAEWIYGTNLDWAGKLVERATGLDLEQYLQENICAPLGITDMTFKLQQRPDMLARRADQTHRNSADGRLRYDDSVYFRADGEECFGGQGVFSSPGSYMKVLHSLLKRDGLLLQPQTVDLMFQPALEPRLEEQMNQHMDASPHINYGGPMPMFLRRSFGLGGIIALEDLDGENWRRKGSLTFGGGPNIVWQIDPKAGLCTLAFFQLEPWNDPVCRDLTRTFEHAIYAQYQQG
Question: For B1, which “activities towards LovF (kinetic assay for LVA synthesis with LovF as acyl donor)” value is on record?
Answer: The G7 mutant exhibited a 27-fold decrease in activities towards LovF compared to the G0 parent
